Experimental data from PMC7491320, “Pdc2/Pat1 increases the range of decay factors and RNA bound by the Lsm1–7 complex”.

Tests used:
Lsm1-7 complex [1] = biological target: T1, Lsm1-7 complex (Schizosaccharomyces pombe, UniProt P87173;O94408;Q9Y7M4;O14352;O42978;Q9UUI1;O74499 …); test: SEC-MALS; monomeric complex; FP: 200 mM NaCl, 20 mM HEPES pH 7.0, 1 mM DTT, 5 mM MgCl2, 0.3 ug/uL acetylated BSA, 500 pM 5'-FAM RNA, 22 C; conditions: protein: recombinant; tags: N-terminal His6-TEV on Lsm1, TEV-treated; copies: 1;1;1;1;1;1;1
[2] = biological target: T2, PatMC (Pat1/Pdc2 middle and C-terminal domains);Lsm1-7 complex (Schizosaccharomyces …, UniProt O42958;P87173;O94408;Q9Y7M4;O14352;O42978;Q9UUI1;O74499 …, |); test: SEC-MALS; stoichiometric RNA; dimeric and tetrameric assemblies; FP: 200 mM NaCl, 20 mM HEPES pH 7.0, 1 mM DTT, 5 mM MgCl2, 0.3 ug/uL acetylated BSA, 500 pM 5'-FAM RNA, 22 C; conditions: protein: recombinant;recombinant; tags: none stated in coexpressed complex;N-terminal His6-TEV on Lsm1, TEV-treated; copies: 1;1;1;1;1;1;1;1
Lsm1-7 complex [3] = biological target: T1, Lsm1-7 complex; test: fluorescence polarization; 5 mM Mg2+; strongly favored; FP: 200 mM NaCl, 20 mM HEPES pH 7.0, 1 mM DTT, 5 mM MgCl2, 0.3 ug/uL acetylated BSA, 500 pM 5'-FAM RNA, 22 C; conditions: protein: recombinant; tags: N-terminal His6-TEV on Lsm1, TEV-treated; copies: 1;1;1;1;1;1;1; label: 5'-FAM
[4] = biological target: T2, PatMC (Pat1/Pdc2 middle and C-terminal …); test: fluorescence polarization; 5 mM Mg2+; Hill ~1; affinity not affected by PatMC; FP: 200 mM NaCl, 20 mM HEPES pH 7.0, 1 mM DTT, 5 mM MgCl2, 0.3 ug/uL acetylated BSA, 500 pM 5'-FAM RNA, 22 C; conditions: protein: recombinant;recombinant; tags: none stated in coexpressed complex;N-terminal His6-TEV on Lsm1, TEV-treated; copies: 1;1;1;1;1;1;1;1; label: 5'-FAM

Q: What does the source list for UUUUUUUUUUUUUUU (ssRNA) [U15 (SEC-MALS)]?
A: binding result (Lsm1-7 complex [1]): binds; binding result [2]: binds

Q: Does UUUUUUUUUUUUUUU (ssRNA) [U15 (FAM)] bind (Lsm1-7 complex [3])?
A: binds

Q: Does UUUUUUUUUUUUUUU (ssRNA) [U15 (FAM)] bind [4]?
A: binds
